# According to the Human Domainome abundance scans (Beltran et al. 2025):
# ± gives the uncertainty stated by the source.
# B1: Transcriptional repressor p66-beta, residues 415 to 455; numbered along this chain, Q8WXI9 (parent)
# chain: VEPFVCAQCRTDFTPHWKQEKNGKILCEQCMTSNQKKALKA
# Variants of: B1
# Experiment: abundance fitness (aPCA) (normalised: wild type 0, dead -1); higher = more abundant; growth selection in yeast, the domain comes from the species named
# Details: Homo sapiens
row,Variant,abundance fitness
1,H16F,-0.005 ± 0.18
2,K40M,-0.066 ± 0.18
3,K24M,-0.082 ± 0.11
4,T14D,-0.347 ± 0.27
5,K40H,-0.125 ± 0.25
6,P3S,0.398 ± 0.077
7,I25Y,-0.307 ± 0.23
8,Q8H,0.58 ± 0.14
9,W17L,0.051 ± 0.088
10,D12F,-0.149 ± 0.2
11,P15D,0.212 ± 0.14
12,K18F,-0.312 ± 0.39
13,C9Q,-0.09 ± 0.097
14,A7M,-0.165 ± 0.095
15,T14Y,0.264 ± 0.2
16,H16R,-0.05 ± 0.066
17,A7H,0.534 ± 0.28
18,T32W,-0.453 ± 0.08
19,P15M,-0.111 ± 0.1
20,G23E,0.189 ± 0.083
21,T11D,0.066 ± 0.44
22,A38H,-0.32 ± 0.36
23,Q29I,-0.177 ± 0.16
24,K18P,-0.165 ± 0.11

row,Variant,abundance fitness
1,K36F,-0.324 ± 0.17
2,A38P,-0.509 ± 0.47
3,S33T,-0.01 ± 0.087
4,F13K,-0.629 ± 0.44
5,Q29L,-0.042 ± 0.087
6,Q19V,0.159 ± 0.061
7,M31V,-0.083 ± 0.069
8,E20R,-0.314 ± 0.072
9,W17S,0.127 ± 0.08
10,L39R,-0.016 ± 0.061
11,L26Q,-0.075 ± 0.11
12,C6T,0.403 ± 0.15
13,N34E,0.127 ± 0.073
14,I25S,-0.246 ± 0.12
15,L26W,-0.113 ± 0.1
16,Q19K,0.143 ± 0.089
17,E28T,0.029 ± 0.17
18,N22T,0.079 ± 0.2
19,K18E,0.098 ± 0.078
20,E20P,-0.631 ± 0.23
21,P15C,0.051 ± 0.08
22,E28M,-0.159 ± 0.11
23,Q29S,-0.156 ± 0.093
24,I25T,-0.054 ± 0.086

row,Variant,abundance fitness
1,G23D,0.343 ± 0.12
2,N34H,-0.077 ± 0.1
3,H16S,-0.084 ± 0.074
4,V5Q,0.14 ± 0.084
5,G23C,-0.137 ± 0.18
6,K37T,-0.027 ± 0.11
7,N34T,-0.199 ± 0.13
8,E28Y,-0.16 ± 0.13
9,K18V,0.011 ± 0.06
10,D12E,0.032 ± 0.081
11,N34A,-0.076 ± 0.077
12,W17E,0.196 ± 0.11
13,G23V,0.092 ± 0.062
14,F13V,0.337 ± 0.053
15,H16M,-0.1 ± 0.1
16,C27W,-1.02 ± 0.18
17,V5G,-0.302 ± 0.075
18,E20F,-0.696 ± 0.29
19,P3T,-0.066 ± 0.19
20,C6V,-1.08 ± 0.17
21,P3V,-0.057 ± 0.074
22,K36I,-0.198 ± 0.4
23,T14E,-0.041 ± 0.11
24,L26G,-0.304 ± 0.059

row,Variant,abundance fitness
1,K40N,0.079 ± 0.19
2,E2G,-0.299 ± 0.092
3,V5A,0.116 ± 0.095
4,Q35E,0.025 ± 0.08
5,A38Q,-0.541 ± 0.44
6,E2W,-0.651 ± 0.16
7,C9W,-0.999 ± 0.17
8,A41M,-0.247 ± 0.2
9,E28P,-0.178 ± 0.098
10,K21Q,0.235 ± 0.1
11,S33C,-0.113 ± 0.2
12,E20K,-0.468 ± 0.37
13,I25Q,-0.029 ± 0.15
14,W17R,0.092 ± 0.061
15,D12K,-0.274 ± 0.2
16,Q29E,-0.097 ± 0.14
17,C27T,-1.38 ± 0.32
18,Q35P,-0.223 ± 0.12
19,K40C,-0.144 ± 0.15
20,K24E,0.17 ± 0.094
21,C27V,-1.11 ± 0.23
22,M31S,-0.042 ± 0.12
23,C30W,-1.07 ± 0.13
24,C9K,-0.148 ± 0.13

row,Variant,abundance fitness
1,A38W,-0.398 ± 0.12
2,P3I,0.284 ± 0.49
3,K24A,-0.079 ± 0.073
4,S33V,-0.104 ± 0.092
5,F4A,0.101 ± 0.065
6,V5R,-0.027 ± 0.067
7,C27R,-1.06 ± 0.17
8,Q35G,-0.152 ± 0.058
9,P15T,0.078 ± 0.085
10,C6W,-0.955 ± 0.2
11,E2N,0.866 ± 0.19
12,L39V,0.078 ± 0.061
13,W17Q,0.523 ± 0.13
14,T32V,-0.127 ± 0.06
15,E2M,-0.019 ± 0.1
16,T11R,0.1 ± 0.056
17,K36V,-0.277 ± 0.07
18,V1E,0.067 ± 0.13
19,C9D,-0.271 ± 0.17
20,T14L,-0.035 ± 0.078
21,K36C,-0.275 ± 0.12
22,N22G,0.439 ± 0.06
23,L26C,-0.075 ± 0.27
24,Q29R,0.02 ± 0.058

row,Variant,abundance fitness
1,H16W,0.017 ± 0.074
2,K21S,-0.104 ± 0.084
3,C6N,-0.317 ± 0.28
4,R10K,0.409 ± 0.087
5,E2H,0.197 ± 0.14
6,A41R,-0.071 ± 0.079
7,Q8W,0.557 ± 0.057
8,L26I,-0.004 ± 0.2
9,L39D,-0.558 ± 0.3
10,W17Y,0.557 ± 0.4
11,E28H,-0.066 ± 0.29
12,E2K,-0.324 ± 0.11
13,A7V,0.363 ± 0.054
14,F13W,-0.213 ± 0.089
15,E2Y,-0.114 ± 0.11
16,P3W,-0.243 ± 0.2
17,E2C,-0.112 ± 0.16
18,N22V,0.193 ± 0.079
19,A7N,0.121 ± 0.13
20,T32F,-0.143 ± 0.25
21,A38D,0.046 ± 0.13
22,E2L,-0.469 ± 0.16
23,L39A,-0.083 ± 0.079
24,Q8R,0.843 ± 0.055

row,Variant,abundance fitness
1,V1A,-0.29 ± 0.086
2,G23W,-0.392 ± 0.14
3,Q8L,0.723 ± 0.06
4,Q8V,0.896 ± 0.052
5,V1R,-0.054 ± 0.12
6,K37G,-0.015 ± 0.056
7,C9H,0.389 ± 0.1
8,H16N,-0.319 ± 0.2
9,N34K,-0.254 ± 0.14
10,A38M,-0.181 ± 0.13
11,N34W,-0.67 ± 0.12
12,L39S,0.094 ± 0.097
13,Q19N,0.136 ± 0.14
14,L26H,0.12 ± 0.38
15,R10F,0.608 ± 0.1
16,T14P,0.137 ± 0.078
17,Q8S,0.839 ± 0.061
18,A7S,0.523 ± 0.087
19,R10P,0.352 ± 0.093
20,Q8C,0.506 ± 0.095
21,L39G,0.157 ± 0.052
22,F4I,0.125 ± 0.39
23,T14M,-0.527 ± 0.25
